These results are taken from paper PMC6363478.

For this assay, the target named is rat EMILIN1 C-terminus fusion protein in pRSET-A (REM) (rat). Kind of assay: SPR. On the technique in general: Surface plasmon resonance follows binding to a sensor surface in real time, without labels.

What is called Kd is the constant that tells how readily two partners part at equilibrium. Lower therefore signals tighter binding. For “rat organ of Corti CNGA3 C-terminus fusion protein in pRSET-A (RA3-C) (domain or fragment)”, the Kd stood at 270 nM.
